Results on one substance are retold here after publication PMC7842947.

The target of the test is chondroitin sulfate proteoglycan 4 (CSPG4), endogenous on HeLa cells (human (endogenous in HeLa)) (UniProt Q6UVK1).
UniProt Q6UVK1, sequence (Q6UVK1 30-2322): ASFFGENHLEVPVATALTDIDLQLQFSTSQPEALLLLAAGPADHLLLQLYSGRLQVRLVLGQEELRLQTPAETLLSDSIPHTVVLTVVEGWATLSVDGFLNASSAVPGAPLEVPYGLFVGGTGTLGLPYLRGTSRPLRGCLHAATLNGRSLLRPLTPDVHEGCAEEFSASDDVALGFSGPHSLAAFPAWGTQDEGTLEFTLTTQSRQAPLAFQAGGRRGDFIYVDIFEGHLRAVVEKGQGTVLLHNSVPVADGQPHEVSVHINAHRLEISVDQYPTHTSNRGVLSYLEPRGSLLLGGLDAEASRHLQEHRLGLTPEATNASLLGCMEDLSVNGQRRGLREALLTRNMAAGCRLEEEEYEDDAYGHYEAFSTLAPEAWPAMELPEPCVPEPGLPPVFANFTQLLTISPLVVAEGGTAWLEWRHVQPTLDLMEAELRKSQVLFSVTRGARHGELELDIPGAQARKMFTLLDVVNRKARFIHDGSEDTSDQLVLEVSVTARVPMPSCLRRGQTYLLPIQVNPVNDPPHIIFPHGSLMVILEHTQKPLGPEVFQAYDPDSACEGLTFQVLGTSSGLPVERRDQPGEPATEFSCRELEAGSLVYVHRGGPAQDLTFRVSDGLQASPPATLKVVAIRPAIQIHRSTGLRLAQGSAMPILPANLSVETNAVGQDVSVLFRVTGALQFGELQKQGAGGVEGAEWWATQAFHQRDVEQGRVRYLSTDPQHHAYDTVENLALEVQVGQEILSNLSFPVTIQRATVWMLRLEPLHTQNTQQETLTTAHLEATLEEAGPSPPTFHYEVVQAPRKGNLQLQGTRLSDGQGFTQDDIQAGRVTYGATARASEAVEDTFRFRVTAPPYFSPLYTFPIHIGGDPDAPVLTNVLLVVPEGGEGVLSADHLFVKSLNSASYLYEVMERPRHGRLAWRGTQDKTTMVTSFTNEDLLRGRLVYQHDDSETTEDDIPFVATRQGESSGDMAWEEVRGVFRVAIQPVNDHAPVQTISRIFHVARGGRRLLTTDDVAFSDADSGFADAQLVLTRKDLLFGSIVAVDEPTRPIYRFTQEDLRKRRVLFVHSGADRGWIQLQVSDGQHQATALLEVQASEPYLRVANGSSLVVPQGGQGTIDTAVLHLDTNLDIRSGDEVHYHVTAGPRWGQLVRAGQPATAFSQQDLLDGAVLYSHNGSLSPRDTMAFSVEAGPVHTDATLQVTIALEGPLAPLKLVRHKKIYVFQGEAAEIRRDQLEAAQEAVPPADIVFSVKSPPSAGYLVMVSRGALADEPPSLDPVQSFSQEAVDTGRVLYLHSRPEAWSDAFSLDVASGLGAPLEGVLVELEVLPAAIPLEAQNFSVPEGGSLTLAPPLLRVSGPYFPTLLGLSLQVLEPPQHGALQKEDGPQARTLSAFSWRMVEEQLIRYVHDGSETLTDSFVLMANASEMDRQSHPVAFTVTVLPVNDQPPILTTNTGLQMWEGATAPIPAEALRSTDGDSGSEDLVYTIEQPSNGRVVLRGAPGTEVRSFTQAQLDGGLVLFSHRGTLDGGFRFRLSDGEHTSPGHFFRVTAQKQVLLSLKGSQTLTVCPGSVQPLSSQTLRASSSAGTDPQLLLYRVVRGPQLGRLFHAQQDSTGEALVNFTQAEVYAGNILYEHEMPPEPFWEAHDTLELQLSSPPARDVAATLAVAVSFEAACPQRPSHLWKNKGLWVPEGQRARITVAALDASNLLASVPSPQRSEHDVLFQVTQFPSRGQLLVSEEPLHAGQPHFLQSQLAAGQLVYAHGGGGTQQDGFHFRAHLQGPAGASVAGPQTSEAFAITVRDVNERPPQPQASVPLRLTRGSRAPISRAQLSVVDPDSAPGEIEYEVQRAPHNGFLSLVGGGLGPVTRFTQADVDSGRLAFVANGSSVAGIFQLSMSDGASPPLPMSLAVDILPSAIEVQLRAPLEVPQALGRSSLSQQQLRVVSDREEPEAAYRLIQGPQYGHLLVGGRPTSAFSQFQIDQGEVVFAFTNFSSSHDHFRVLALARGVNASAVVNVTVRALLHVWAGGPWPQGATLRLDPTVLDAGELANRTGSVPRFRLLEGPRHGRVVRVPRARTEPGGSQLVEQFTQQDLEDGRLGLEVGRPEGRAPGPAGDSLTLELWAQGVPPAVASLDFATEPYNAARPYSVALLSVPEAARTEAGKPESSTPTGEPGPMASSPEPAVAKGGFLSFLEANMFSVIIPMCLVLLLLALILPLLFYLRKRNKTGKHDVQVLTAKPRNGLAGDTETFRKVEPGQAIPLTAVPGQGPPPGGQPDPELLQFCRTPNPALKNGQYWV

Turning to “Clostridioides difficile toxin B variant 2 (TcdB2), full length, reference sequence from strain CD196 (natural protein)”, the CR50, cytopathic cell-rounding assay on HeLa FZD1/2/7-/- cells was 0.06 pM.
